Results from the supplement of paper PMC12764529.
± gives the half width of the 95% confidence interval.

What was measured:
[1] = folding stability dG unfold from chymotrypsin proteolysis; higher = more stable
In short: (§1)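 K50 was inferred by Bayesian fitting of sequencing counts obtained after protease digestion of designed mini-proteins. Unfolding free energy was derived by comparison with a sequence-predicted unfolded-state K50 and a shared folded-state K50, for each protease or both combined. The mini-proteins were under 80 residues, had no cysteine, were carried in a PA-tagged cDNA display construct, and were kept only if AlphaFold2 dimer inter-PAE exceeded 15.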

[2] = folding stability dG unfold from trypsin proteolysis; higher = more stable
In short: as §1

[3] = folding stability dG unfold (combined trypsin and chymotrypsin); higher = more stable
In short: as §1

Sequence | folding stability dG unfold [1] | folding stability dG unfold [2] | folding stability dG unfold [3]
SAGGKATVTITEVKVETETVTLKYDPETGELVEKTETVTRVEVKTITIEADKNPELAEELLKKLGIESAGGS [r16_467_TrROS_Hall] | 2.93 ± 0.25 kcal/mol | 1.69 ± 0.11 kcal/mol | 2.56 ± 0.28 kcal/mol
SAGGSAGGGMKFVKVTLEYAGGEVREYLFTTSSSDSTVEVVIEDLPPEKGARITEITEYPASLLSAGGSAGG [r6_530_JUSTAS] | 1.17 ± 0.16 kcal/mol | 0.746 ± 0.068 kcal/mol | 0.978 ± 0.21 kcal/mol
SAGGMTIVEKDGKLVLKITVTVPPGTTVEELKNALKELFGVEEVKVVKIEKNENGEITITVEAVFPKSAGGS [r16_234_TrROS_Hall] | 3.31 ± 0.13 kcal/mol | 2.59 ± 0.12 kcal/mol | 3.03 ± 0.11 kcal/mol
SAGGMPKPVTLPAVIELGAGPAIAVEEFPETGKLVFVFPPTHRIFVFDPNGKLVAEVDVPPDVPVSAVSAGG [r13_507_TrMRF] | 0.973 ± 0.31 kcal/mol | 0.901 ± 0.053 kcal/mol | 0.931 ± 0.15 kcal/mol
GYTITSEVEEFEDPNSDAKYTKVTIPVVDGDPEVAREAAEEIAKERFGPGATLDIKYDPETGTVTATFTVAS [r1_273_JUSTAS] | 0.379 ± 0.1 kcal/mol | 0.511 ± 0.026 kcal/mol | 0.563 ± 0.081 kcal/mol
SMKEGIEAAIDELKEALEKGEGEVRVVLRFEGFVLEITIKPKGYKIEDIEIEPLPDDIPFIREREEVPPESA [r9_308_TrMRF] | 1.58 ± 0.19 kcal/mol | 1.23 ± 0.051 kcal/mol | 1.52 ± 0.24 kcal/mol
SAKKKVIEVELPPDAKVVTIKLEGKGVEITFVEVDGKLVITVRYKDDPSKTVTIVVKTKEEADALLKALSAG [r14_716_TrROS_Hall] | 1.85 ± 0.068 kcal/mol | 1.23 ± 0.082 kcal/mol | 1.66 ± 0.27 kcal/mol
SAGGSAGGSAGGGWAEIEIKITIFVFDPGNMTLFMVTLEPRIEVPPVKRDPDNGKWKPDSAGGSAGGSAGGS [r10_815_TrROS] | 3.92 ± 0.21 kcal/mol | 2.86 ± 0.23 kcal/mol | 3.81 ± 0.42 kcal/mol
SAGGSAKIPVMFMIESPEQIIELVDEFAPPGHEVKVKIDNVEPFPMREDGEERPYYMFRVTIEFPPSAGGSA [r15_95_TrROS] | 1.84 ± 0.16 kcal/mol | 1.64 ± 0.07 kcal/mol | 1.78 ± 0.14 kcal/mol
SAGGSSPELAAERLAEELRRQGYAVREVVVTYDPAGTVTVSAVIEDPADPAATSTLTVTVPLAELGSAGGSA [r2_384_JUSTAS] | 2.91 ± 0.024 kcal/mol | 2.45 ± 0.059 kcal/mol | 2.73 ± 0.046 kcal/mol
SAGGSAPPNLQIDIQINPGHGYIEVSVQIPGRHVKASAKLTEPGQLKMDIEFPGNGKEIDITIPISSAGGSA [r15_837_TrROS] | 2.61 ± 0.072 kcal/mol | 2.04 ± 0.14 kcal/mol | 2.37 ± 0.15 kcal/mol
SAGGKKKKVITVEVPPEATAEELLAALKKADKVFIRTKDGKVREIKVGEKVSPEELKVKPGDTVEIYVSAGG [r13_399_TrROS_Hall] | 1.74 ± 0.096 kcal/mol | 1.12 ± 0.12 kcal/mol | 1.53 ± 0.24 kcal/mol
SAGGSAGGSGKPEKVKITYTKDTNTNKYTATITFENGPTYKITFPTKTPEEAIEQAKKLIEASSAGGSAGGS [r12_339_TrMRF] | 2.05 ± 0.032 kcal/mol | 1.62 ± 0.061 kcal/mol | 1.94 ± 0.15 kcal/mol
SAGGNIKIEVYRSPDYYMIRIKLDGKPYEIPIDPGNTEEEAAEQALDNLQEKFPDKPIKIKDVEIYPYSAGG [r13_884_TrROS] | 0.513 ± 0.42 kcal/mol | 0.473 ± 0.22 kcal/mol | 0.566 ± 0.28 kcal/mol
SAGGSAGGTIPSDYSVKELKVGGKKYVIVRYPDGIVELYSVEGNKKTLLRTVDTDPNASVSISGSAGGSAGG [r6_476_JUSTAS] | 2.67 ± 0.04 kcal/mol | 1.73 ± 0.044 kcal/mol | 2.38 ± 0.097 kcal/mol
SAGGSAGGSAGGSGPSVTVSTTTLPPLPVTVETVTVGDTTVLVVFTPEGGSAVVPSGALSAGGSAGGSAGGS [r4_256_JUSTAS] | 0.858 ± 0.02 kcal/mol | 1.96 ± 0.091 kcal/mol | 1.4 ± 0.087 kcal/mol
SMGSITITLPATPEELRELLREKGISPELAPSWEEVKEALKKAFPKNVTVTINPKSPVSEEAAKAAREGSSA [r9_74_JUSTAS] | 1.45 ± 0.017 kcal/mol | 0.462 ± 0.038 kcal/mol | 1.13 ± 0.064 kcal/mol
SKKTIYIVNEDGSIIRFDEETGEITIFNKETGKEVKIKVEKKGNELIITIEVNGKKYKIKIPKGDIIPIKSA [r9_239_TrROS_Hall] | 4.16 ± 0.07 kcal/mol | 2.32 ± 0.062 kcal/mol | 3.68 ± 0.24 kcal/mol
SAGGSAGGSKPNEIKIKKIKIEVKIKKKKVDKEKGEEIYEIEEVKIEIEEITLSKEELEKLLKSAGGSAGGS [r12_723_TrROS_Hall] | 2.06 ± 0.088 kcal/mol | 1.54 ± 0.097 kcal/mol | 1.94 ± 0.12 kcal/mol
SVIKLPIWYPNSPAEQAEEMVQSLARKFMDKYGLKIDVEVETRRDPDGKPRWVRIEATIQYRDEDGKPIFSA [r9_21_TrROS] | 2 ± 0.073 kcal/mol | 1.81 ± 0.084 kcal/mol | 2.07 ± 0.26 kcal/mol
SAGGEIAKRFAKYARDAGYDVRVDVEIIPPDEFPGLKPGKPYVIKVEIEVTPPNGPRRPLGEFTIMINSAGG [r13_874_TrROS] | 3.18 ± 0.046 kcal/mol | 2.13 ± 0.06 kcal/mol | 2.82 ± 0.08 kcal/mol

Sequence | folding stability dG unfold [1] | folding stability dG unfold [2] | folding stability dG unfold [3]
SAGGSAGGSAGGPKAIVTEVEVEPNTGKARLKVKVYDPVTGKFSEFEVEVETTGKDLNLSAGGSAGGSAGGS [r10_173_TrMRF] | 2.37 ± 0.074 kcal/mol | 1.08 ± 0.049 kcal/mol | 1.89 ± 0.11 kcal/mol
SAGGSAGGSAGGGSVTIRVESPEEAVATAKELLEKLTGAKPEATPLNVVVEEPDGVATVESAGGSAGGSAGG [r7_387_JUSTAS] | -0.721 ± 0.18 kcal/mol | 1.03 ± 0.058 kcal/mol | 0.378 ± 0.13 kcal/mol
SAGGSAGGSAGGELVLKIKVKPGEKVKLKLKLFDKNGKLVEEFEVEVEVVKEGDTLYIRLSAGGSAGGSAGG [r7_63_TrROS_Hall] | 4.03 ± 0.052 kcal/mol | 2.69 ± 0.064 kcal/mol | 3.67 ± 0.11 kcal/mol
SAGGSAGGKISKEDLEKILEAIKEGKPITIVKVKVEKNENGEEVEKVEVIKTFTAEELKKLGIESAGGSAGG [r6_402_TrROS_Hall] | 1.61 ± 0.073 kcal/mol | 1.73 ± 0.14 kcal/mol | 1.43 ± 0.2 kcal/mol
SAGGLEELAKEIADDLQKRNPDMNIEVQVEVHEYKIPPGQKMRHPDGEEKEVPPGQKVYMFTIRVTPSAGGS [r16_357_TrROS] | 1.26 ± 0.27 kcal/mol | 0.758 ± 0.11 kcal/mol | 1.17 ± 0.21 kcal/mol
SAGGSAGGSAGSMEPVKTEELESGEVRTVSLLPDGTIKEELIKIEGEGETVETKVVPLEESAGGSAGGSAGG [r11_699_JUSTAS] | 1.68 ± 0.1 kcal/mol | 0.745 ± 0.065 kcal/mol | 1.48 ± 0.2 kcal/mol
SAGGSAGGKKPPKIKVIYIKADSPEALKKLKIKAKPGDTILIYVDGKLYRLTVIDGKIKIEELPSAGGSAGG [r6_550_TrROS_Hall] | 3.73 ± 0.065 kcal/mol | 2.12 ± 0.089 kcal/mol | 3.35 ± 0.14 kcal/mol
SAGGSPPNITYELTFPDGTVYTDPLPGKSLEELKEYVKSLNFTNVEVTVYEESSEVSTYKVTIPPNESAGGS [r16_700_JUSTAS] | 0.57 ± 0.13 kcal/mol | 0.169 ± 0.079 kcal/mol | 0.437 ± 0.12 kcal/mol
SAPMKIVKKTDNTLYIYDKKTKKIVKITINDGTITVEEITYDKKTKEKKVETKTIKLSEEQLKKLKKLLSAG [r14_245_TrROS_Hall] | 0.7 ± 0.24 kcal/mol | 1.54 ± 0.079 kcal/mol | 1.23 ± 0.14 kcal/mol
SAGGSAGGSAGGSDNKAILGDVPIKFYDKNGKPVITAKIGYFPDGRVVIYFPDGSKIEASAGGSAGGSAGGS [r10_972_TrMRF] | 1.04 ± 0.023 kcal/mol | 1.48 ± 0.04 kcal/mol | 1.25 ± 0.038 kcal/mol
SLGPNEDAILEEEAIIDIDPEAFRKAFGFDVPEDTKVLIITRRRVPANGDIETDPEIYIYDPKTKKFYPISA [r9_349_TrMRF] | 2.34 ± 0.067 kcal/mol | 2.05 ± 0.046 kcal/mol | 2.29 ± 0.16 kcal/mol
SAGGTTTTLTFETEEEAREFAEELREKHPDVVLEVEIRRETRTVTVPGVGEVREVDRVVVTVTLTPASAGGS [r16_828_JUSTAS] | 3.27 ± 0.064 kcal/mol | 2.03 ± 0.054 kcal/mol | 2.89 ± 0.07 kcal/mol
SAGGSAGGSAGKKKVKLVEFDEETGYALLEVEDEETGETKLVLVPMTAEELEALPNIEVLSAGGSAGGSAGG [r17_46_TrROS_Hall] | 1.91 ± 0.079 kcal/mol | 2.14 ± 0.24 kcal/mol | 2.08 ± 0.24 kcal/mol
SAGGTIYIWFPMKVDEAVDLAKELAENKDWKIEIYNGGKEHEIELDKIEPVPPENVRVYIEIEPKPDSAGGS [r16_628_TrROS] | 1.64 ± 0.082 kcal/mol | 0.423 ± 0.041 kcal/mol | 1.26 ± 0.097 kcal/mol
SAGGKPTQTITITLKDGRTLTIKVGQTVTITLDNGKTITVTVKDATITVKDGKVTITVNGKTYTFTVKSAGG [r13_643_TrROS_Hall] | 4.73 ± 0.13 kcal/mol | 3.45 ± 0.24 kcal/mol | 4.62 ± 0.23 kcal/mol
SAGGSAGGSAGGMEKVTEVKPVATLPNGTVVTETLVTYTAPNGPEIGEEVVLTEDPVPKSAGGSAGGSAGGS [r10_941_JUSTAS] | -0.408 ± 0.2 kcal/mol | -0.942 ± 0.22 kcal/mol | -0.455 ± 0.15 kcal/mol
SAGGSMAPDVKVEVEVFPDGLVLFRLTLPDGRPFLALAEVREDGRVKVVVFDLYPGEKVEFEIPIKSAGGSA [r2_99_TrMRF] | 3.7 ± 0.045 kcal/mol | 2.52 ± 0.12 kcal/mol | 3.28 ± 0.14 kcal/mol
SAGASVEQWSLTSVEVTELPGPEVVVPMTARLPDGTEVVMSGVVGPGSVTLTSPDGSTSTLAIPPALASAGG [r19_84_JUSTAS] | 0.734 ± 0.045 kcal/mol | 1.2 ± 0.023 kcal/mol | 1.03 ± 0.04 kcal/mol
SAGGSAGGSAKHRVDDIQPQRHKNPDGEKPVRVRFPDNGQEERIPADNLDDIDVSDGMEVEPSAGGSAGGSA [r18_288_TrROS] | -0.631 ± 0.044 kcal/mol | -1.8 ± 0.45 kcal/mol | -0.855 ± 0.2 kcal/mol
SAGGSAGGSAGGMKTLTVTTESLTKEEIIEEIKAMGYPNAKVTVTPSPENPDKYIVNVIESAGGSAGGSAGG [r7_988_JUSTAS] | 0.736 ± 0.13 kcal/mol | 0.292 ± 0.091 kcal/mol | 0.404 ± 0.18 kcal/mol
SAGGSVVTTTFTYPDGTVVTTTTTPRPETLLTTTTTTTFYPDKPVKVAPGKEVVTTVTTTTTTVTPAASAGG [r13_780_JUSTAS] | 0.574 ± 0.12 kcal/mol | 0.378 ± 0.03 kcal/mol | 0.54 ± 0.069 kcal/mol
